Measured values: article PMC10087246

Target: SCO3201 (amino acids 21–216), TetR/AcrR-like regulator from Streptomyces coelicolor (Streptomyces coelicolor) (UniProt Q9KYU4)
Experiment: SAXS

SCO3201 (amino acids 21–216), TetR/AcrR-like regulator from Streptomyces coelicolor (from UniProt Q9KYU4 21-216) (domain or fragment)
stoichiometry N: 2
